Publication PMC6254012, “AP2/ERF Family Transcription Factors ORA59 and RAP2.3 Interact in the Nucleus and Function Together in Ethylene Responses” (Frontiers in Plant Science, 2018)

Target: T1, His-tagged RAP2.3 (RAP2.3-His) (Arabidopsis thaliana, UniProt P42736 1-248)
T1 construct: RAP2.3 (related to AP2.3), Arabidopsis thaliana; not shown: His, C-terminal, kept
Assay: pull-down; GST or ORA59-GST (10 μg) on glutathione sepharose 4B beads, RAP2.3-His (10 μg) added for 2 h at 4°C; 25 mM Tris-HCl pH 8.0, 100 mM NaCl, 1% Triton X-100, 1 mM DTT; immunoblot with anti-GST and anti-His
Conditions: both partners purified

T1 sequence (P42736 whole entry): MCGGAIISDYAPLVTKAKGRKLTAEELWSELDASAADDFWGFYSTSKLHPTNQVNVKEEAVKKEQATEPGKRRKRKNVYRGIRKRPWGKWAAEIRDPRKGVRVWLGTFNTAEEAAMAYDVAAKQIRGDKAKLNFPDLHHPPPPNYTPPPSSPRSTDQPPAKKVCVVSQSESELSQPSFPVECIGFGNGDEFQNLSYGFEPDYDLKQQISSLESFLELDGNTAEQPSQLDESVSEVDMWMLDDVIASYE

binding result: binds
B1: C-terminal GST-tagged ORA59 (ORA59-GST) (natural protein)
chain: not shown
notes: ORA59 (octadecanoid-responsive arabidopsis 59), Arabidopsis thaliana; not shown: GST, C-terminal, kept
